The values that follow come from paper PMC6856716.

Where two headings read alike, the source gives them in different places.

Test [1] addresses Actin (rabbit skeletal muscle alpha actin), polymerized (F-actin) (rabbit) (UniProt P68135). Briefly: co-sedimentation.
Test [2] has the same target. Briefly: co-sedimentation. This is another data set of the same source.

As for “talin N-R11 (C-terminal truncation lacking R12 and the C-terminus), P26039 1-2141”, the co-sedimented talin fragment relative to talin-FL (relative to talin-FL) is 1.1 in test [1] and 1.3 in test [2].
Turning to “talin N-R12 (C-terminal truncation), P26039 1-2294”, the co-sedimented talin fragment relative to talin-FL (relative to talin-FL) in test [2] was 0.68.
As for “talin R1-C (truncation lacking the FERM domain), P26039 482-2541”, the co-sedimented talin fragment relative to talin-FL (relative to talin-FL) in test [1] was found to be 1.3; in test [2], 1.1.
